Measurements published in patent publication US6649742.

Target: T1, human CD5 cell differentiation marker (human, UniProt P06127 25-495)
T1 sequence: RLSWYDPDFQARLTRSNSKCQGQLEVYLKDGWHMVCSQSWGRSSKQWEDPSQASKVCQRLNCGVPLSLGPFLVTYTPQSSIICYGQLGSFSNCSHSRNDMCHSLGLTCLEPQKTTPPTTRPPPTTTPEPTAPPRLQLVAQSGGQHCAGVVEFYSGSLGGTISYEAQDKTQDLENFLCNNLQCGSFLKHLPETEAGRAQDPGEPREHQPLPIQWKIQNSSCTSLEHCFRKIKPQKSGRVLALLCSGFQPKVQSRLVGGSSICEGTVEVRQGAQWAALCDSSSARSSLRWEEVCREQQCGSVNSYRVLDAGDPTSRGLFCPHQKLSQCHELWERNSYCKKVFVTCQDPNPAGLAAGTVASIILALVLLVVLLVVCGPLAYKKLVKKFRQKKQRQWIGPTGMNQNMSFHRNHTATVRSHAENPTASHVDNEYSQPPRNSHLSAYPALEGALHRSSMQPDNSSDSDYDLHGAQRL
Experiment: cell-based or functional assay

B1: he3Fab-rGelA50(C44) (other)
light: DIQMTQSPSSLSASVGDRVTITCRASQDINSYLSWFQQKPGKAPKTLIYRANRLESGVPSRFSGSGSGTDYTLTISSLQYEDFGIYYCQQYDESPWTFGGGTKLEIK
heavy: EIQLVQSGGGLVKPGGSVRISCAASGYTFTNYGMNWVRQAPGKGLEWMGWINTHTGEPTYADSFKGRFTFSLDDSKNTAYLQINSLRAEDTAVYFCTRRGYDWYFDVWGQGTTVTVSS
chain: GLDTVSFSTKGATYITYVNFLNELRVKLKPEGNSHGIPLLRKKCDDPGKAFVLVALSNDNGQLAEIAIDVTSVYVVGYQVRNRSYFFKDAPDAAYEGLFKNTIKTRLHFGGSYPSLEGEKAYRETTDLGIEPLRIGIKKLDENAIDNYKPTEIASSLLVVIQMVSEAARFTFIENQIRNNFQQRIRPANNTISLENKWGKLSFQIRTSGANGMFSEAVELERANGKKYYVTAVDQVKPKIALLKFVDKDPK
modifications: Cys 44 disulfide-linked to the M2IT linker on the Fab; lysine residues of the Fab derivatized with 5-methyl-2-iminothiolane (M2IT), 1 M2IT per Fab
Q: How did the “IC50 (pMT), CEM Cells; whole cell cytotoxicity (inhibition of protein synthesis)” value turn out when B1 was run?
A: The value was 173 pMT.

Q: And the “IC50 (pMT), HSB2 Cells; whole cell cytotoxicity (inhibition of protein synthesis)” value?
A: Its value is 165 pMT.
